Results reported in patent US7173007.

Target: T1, recombinant full-length hCAP18/LL-37 (residues 31-170)
T1 chain: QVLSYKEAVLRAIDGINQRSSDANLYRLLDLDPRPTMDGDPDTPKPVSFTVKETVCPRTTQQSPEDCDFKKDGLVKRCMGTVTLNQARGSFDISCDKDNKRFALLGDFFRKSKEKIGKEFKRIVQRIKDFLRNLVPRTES

B1: human neutrophil elastase (Calbiochem) (protein)
chain: IVGGRRARPHAWPFMVSLQLRGGHFCGATLIAPNFVMSAAHCVANVNVRAVRVVLGAHNLSRREPTRQVFAVQRIFENGYDPVNLLNDIVILQLNGSATINANVQVAQLPAQGRRLGNGVQCLAMGWGLLGRNRGIASVLQELNVTVVTSLCRRSNVCTLVRGRQAGVCFGDSGSPLVCNGLIHGIASFVRGGCASGLYPDAFAPVAQFVNWIDSIIQ
- proteolytic processing of hCAP18/LL-37 (SDS-PAGE and immunoblot): Elastase treatment generated a band migrating at the same size as synthetic LL-37, and a band at 14 kDa
